Primed or numbered codes have the meaning given here. Where no end group is shown, it is not given here. [ ]: non-standard residue; d: D form. FITC′ = fluorescein isothiocyanate label at the N-terminus; pS = N[C@@H](COP(=O)(O)O)C(=O)O
T1: wild-type 14-3-3γ-nLuc (His6-14-3-3γ-nLuc) (human, UniProt P61981 2-247)
T1 construct: Size ~47.5 kDa as printed; The Nluc forward primer encodes a short linker (GGGGTRS, read from the primer) between 14-3-3γ and nLuc; also called wt 14-3-3γ-nLuc; 14-3-3γ-nLuc wt; source: E. coli Rosetta(DE3)pLysS, purified (Ni-NTA); not shown: nLuc (nanoluciferase), C-terminal, kept
T1 sequence (looked up): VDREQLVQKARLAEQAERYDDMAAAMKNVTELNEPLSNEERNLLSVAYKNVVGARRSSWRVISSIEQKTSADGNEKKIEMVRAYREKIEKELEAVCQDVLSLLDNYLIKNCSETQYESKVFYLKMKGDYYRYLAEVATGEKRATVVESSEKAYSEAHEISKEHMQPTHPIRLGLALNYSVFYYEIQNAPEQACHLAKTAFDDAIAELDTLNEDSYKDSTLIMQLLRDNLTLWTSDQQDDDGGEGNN

T2: 14-3-3γ-R57C-nLuc (human, UniProt P61981 2-247, R57C)
T2 sequence: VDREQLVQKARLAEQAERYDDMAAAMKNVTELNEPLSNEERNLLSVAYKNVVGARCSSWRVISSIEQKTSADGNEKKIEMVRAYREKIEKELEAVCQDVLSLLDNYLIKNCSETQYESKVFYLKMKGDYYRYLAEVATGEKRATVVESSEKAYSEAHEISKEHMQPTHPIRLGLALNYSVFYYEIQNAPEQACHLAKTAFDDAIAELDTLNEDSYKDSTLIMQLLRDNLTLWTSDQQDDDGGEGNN

T3: wild-type 14-3-3γ-nLuc (His6-14-3-3γ-nLuc) (human, UniProt P61981 2-247)
T3 chain: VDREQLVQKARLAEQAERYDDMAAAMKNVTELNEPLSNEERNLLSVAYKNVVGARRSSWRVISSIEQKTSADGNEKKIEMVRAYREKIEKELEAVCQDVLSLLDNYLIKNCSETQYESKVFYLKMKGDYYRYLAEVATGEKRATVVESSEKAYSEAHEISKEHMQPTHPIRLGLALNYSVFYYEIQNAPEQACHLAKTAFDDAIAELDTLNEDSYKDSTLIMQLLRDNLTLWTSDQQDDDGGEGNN

T4: 14-3-3γ-R57G-nLuc (human, UniProt P61981 2-247, R57G)
T4 construct: 14-3-3γ (YWHAG), human, pathogenic patient variant R57G, site-directed mutant of the 14-3-3γ-nLuc plasmid; limits as m8; As m8 with R57G; source: E. coli Rosetta(DE3)pLysS, purified (Ni-NTA); not shown: nLuc (nanoluciferase), C-terminal, kept
T4 sequence (looked up): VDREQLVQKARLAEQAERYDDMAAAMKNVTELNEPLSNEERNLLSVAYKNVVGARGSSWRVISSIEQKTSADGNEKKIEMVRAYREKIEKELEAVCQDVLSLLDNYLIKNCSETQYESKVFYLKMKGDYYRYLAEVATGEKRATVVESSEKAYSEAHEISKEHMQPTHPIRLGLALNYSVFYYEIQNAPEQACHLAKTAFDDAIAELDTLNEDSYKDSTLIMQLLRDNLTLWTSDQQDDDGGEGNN

T5: 14-3-3γ-R57C-nLuc (human, UniProt P61981 2-247, R57C)
T5 construct: 14-3-3γ (YWHAG), human, pathogenic patient variant R57C, site-directed mutant of the 14-3-3γ-nLuc plasmid; limits as m8; As m8 with R57C; source: E. coli Rosetta(DE3)pLysS, purified (Ni-NTA); not shown: nLuc (nanoluciferase), C-terminal, kept
T5 sequence (looked up): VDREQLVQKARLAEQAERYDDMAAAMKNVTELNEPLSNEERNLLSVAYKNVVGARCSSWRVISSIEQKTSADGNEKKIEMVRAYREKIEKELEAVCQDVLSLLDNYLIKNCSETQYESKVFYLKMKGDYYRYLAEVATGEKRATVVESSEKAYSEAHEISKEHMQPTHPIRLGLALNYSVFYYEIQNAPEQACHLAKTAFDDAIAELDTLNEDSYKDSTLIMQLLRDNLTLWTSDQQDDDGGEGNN


Assays:
[1] = target: T1, wild-type 14-3-3γ-nLuc …; assay: FRET or BRET; in vitro BRET: 1 nM recombinant nLuc or 14-3-3γ-nLuc with increasing FITC-phosphopeptide in 20 mM Tris-HCl, 150 mM NaCl, 1 mg/mL BSA, 0.1% Tween 20; 250 nM furimazine; net BRET after subtraction of nLuc background; Kd from y = Bmax*x/(Kd + x); conditions: both partners purified
14-3-3γ-R57C-nLuc [2] = target: T2, 14-3-3γ-R57C-nLuc; assay: nafamostat 25 uM; apparent, Bmax set to wild-type
[3] = target: T3, wild-type 14-3-3γ-nLuc …; assay: degarelix 1 uM
[4] = target: T3, wild-type 14-3-3γ-nLuc …; assay: nafamostat 25 uM
14-3-3γ-R57C-nLuc [5] = target: T2, 14-3-3γ-R57C-nLuc; assay: degarelix 1 uM; apparent, Bmax set to wild-type
14-3-3γ-R57G-nLuc = target: T4, 14-3-3γ-R57G-nLuc; assay: FRET or BRET; in vitro BRET: 1 nM recombinant nLuc or 14-3-3γ-nLuc with increasing FITC-phosphopeptide in 20 mM Tris-HCl, 150 mM NaCl, 1 mg/mL BSA, 0.1% Tween 20; 250 nM furimazine; net BRET after subtraction of nLuc background; Kd from y = Bmax*x/(Kd + x); conditions: both partners purified
14-3-3γ-R57C-nLuc [6] = target: T5, 14-3-3γ-R57C-nLuc; assay: as above; conditions: both partners purified
14-3-3γ-R57C-nLuc [7] = target: T2, 14-3-3γ-R57C-nLuc; assay: DMSO; apparent, Bmax set to wild-type
[8] = target: T1, wild-type 14-3-3γ-nLuc …; assay: FRET or BRET; in vitro BRET competition: wt 14-3-3γ-nLuc and FITC-phosphopeptide with increasing doses of R18 peptide (Figure S2D); conditions: both partners purified

Row | Binder | Kd [1] | Kd (14-3-3γ-R57C-nLuc [2]) | Kd [3] | Kd [4] | Kd (14-3-3γ-R57C-nLuc [5]) | percent of the phosphopeptide binding reached at the highest peptide concentration (14-3-3γ-R57G-nLuc) | percent of the phosphopeptide binding reached at the highest peptide concentration (14-3-3γ-R57C-nLuc [6]) | Kd (14-3-3γ-R57C-nLuc [7]) | binding result [8]
1 | {FITC′}-QRHSN[pS]LGPIFDGSGGGSGIKARAS[pS]SPVILVGTHLD (leucine-rich repeat kinase 2 (LRRK2), human; also called FITC-LRRK2; source: synthetic peptide (AbClonal)) [FITC-ppLRRK2] | 0.74 nM | 44.1 nM | 0.89 nM | 0.8 nM | 25.2 nM | ~30% | ~30% | 431 nM | –
2 | {FITC′}-FPQSA[pS]LPPYFS (SLP76 (Lymphocyte cytosolic protein 2/LCP2), human; source: synthetic peptide (AbClonal)) [FITC-pSLP76] | 47.5 nM | – | – | – | – | ~30% | ~30% | – | –

Continued, values first:

Row | Kd [1] | Kd (14-3-3γ-R57C-nLuc [2]) | Kd [3] | Kd [4] | Kd (14-3-3γ-R57C-nLuc [5]) | percent of the phosphopeptide binding reached at the highest peptide concentration (14-3-3γ-R57G-nLuc) | percent of the phosphopeptide binding reached at the highest peptide concentration (14-3-3γ-R57C-nLuc [6]) | Kd (14-3-3γ-R57C-nLuc [7]) | binding result [8] | Binder
3 | 84.3 nM | 5280 nM | 36.2 nM | 75 nM | 22200 nM | – | – | – | – | {FITC′}-MPTPDATTPQAKGFRRAV[pS]ELDAKQAEAIMSPRFIGRRQSLIE (also called phosphopeptide derived from tyrosine hydroxylase (TH); source: synthetic peptide (AbClonal)) [FITC-pTH]
4 | – | – | – | – | – | – | – | – | binds | PHCVPRDLSWLDLEANMCLP (Not labelled with FITC (only the phosphopeptides were); source: synthetic peptide (AbClonal)) [R18 peptide]

— paper PMC12025923 (Cells, 2025)
